Results on 28 molecules are retold here after patent publication US20240092889A1 (Chugai, published 2024).

Numbering of substitutions follows the chain as printed. In names and notes the source's numbering stands.

This assay has as its target T1, recombinant human C1r2s2 tetramer (human, UniProt P09871 16-688; P00736 18-705).
T1 construct: C1s and C1r co-expressed in HEK293/FreeStyle 293-F and purified from conditioned medium
T1 chain 1: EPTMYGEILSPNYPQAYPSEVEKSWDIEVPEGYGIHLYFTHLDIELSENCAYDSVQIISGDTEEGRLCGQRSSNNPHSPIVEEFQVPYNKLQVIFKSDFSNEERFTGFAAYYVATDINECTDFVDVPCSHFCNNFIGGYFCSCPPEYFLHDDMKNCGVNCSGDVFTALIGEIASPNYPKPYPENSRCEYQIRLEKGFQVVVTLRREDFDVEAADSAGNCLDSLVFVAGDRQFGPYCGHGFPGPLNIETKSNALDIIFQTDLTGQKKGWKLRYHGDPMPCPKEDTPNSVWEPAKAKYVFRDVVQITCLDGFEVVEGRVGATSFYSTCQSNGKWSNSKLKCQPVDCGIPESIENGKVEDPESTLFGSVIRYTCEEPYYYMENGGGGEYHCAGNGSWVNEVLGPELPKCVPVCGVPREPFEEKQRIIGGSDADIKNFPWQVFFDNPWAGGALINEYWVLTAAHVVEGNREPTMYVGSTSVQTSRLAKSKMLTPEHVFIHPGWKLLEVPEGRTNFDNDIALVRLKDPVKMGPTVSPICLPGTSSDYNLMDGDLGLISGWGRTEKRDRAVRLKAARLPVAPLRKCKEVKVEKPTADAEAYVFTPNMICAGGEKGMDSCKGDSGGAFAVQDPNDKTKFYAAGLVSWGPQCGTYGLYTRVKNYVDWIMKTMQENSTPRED
T1 chain 2: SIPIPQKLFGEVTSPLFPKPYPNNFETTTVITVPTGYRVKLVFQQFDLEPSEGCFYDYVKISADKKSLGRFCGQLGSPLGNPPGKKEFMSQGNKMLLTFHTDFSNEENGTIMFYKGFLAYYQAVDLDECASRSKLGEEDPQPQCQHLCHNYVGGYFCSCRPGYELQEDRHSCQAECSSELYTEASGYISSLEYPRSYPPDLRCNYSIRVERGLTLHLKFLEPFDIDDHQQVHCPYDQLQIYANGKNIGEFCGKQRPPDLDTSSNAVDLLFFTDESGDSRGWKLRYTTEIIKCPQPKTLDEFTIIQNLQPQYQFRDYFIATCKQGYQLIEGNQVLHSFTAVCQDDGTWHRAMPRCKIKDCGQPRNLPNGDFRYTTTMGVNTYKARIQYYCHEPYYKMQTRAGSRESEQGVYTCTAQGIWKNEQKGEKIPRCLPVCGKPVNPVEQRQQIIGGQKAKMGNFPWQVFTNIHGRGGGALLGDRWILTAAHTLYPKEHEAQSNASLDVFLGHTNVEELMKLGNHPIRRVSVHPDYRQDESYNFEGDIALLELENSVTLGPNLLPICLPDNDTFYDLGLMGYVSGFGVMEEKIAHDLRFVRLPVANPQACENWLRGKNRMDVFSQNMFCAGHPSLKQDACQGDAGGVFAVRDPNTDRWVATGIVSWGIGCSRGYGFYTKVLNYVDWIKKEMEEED
Briefly: SPR (BIACORE), antibody captured by ProL, human C1r2s2 injected at 100 nM, pH 7.4, 37 C. Here is the method:
Analysis of interaction between antibody variants and the human C1r2s2 prepared as mentioned above was carried out at pH7.4, at 37 degrees C. using BIACORE® T200 instrument (GE Healthcare) or BIACORE® 4000 (GE Healthcare). ProL (BioVision) was immobilized onto a CM4 sensorchip using amine coupling kit (GE Healthcare) according to the recommended settings by GE Healthcare. Antibodies and analytes were diluted into the respective running buffers, ACES pH7.4 (20 mM ACES (N-(2-Acetamido)-2-aminoethanesulfonic acid), 150 mM NaCl, 1.2 mM CaCl2, 1 mg/ml bovine serum albumin (BSA), 1 mg/ml CMD (CM-Dextran sodium salt), 0.05% Tween® 20 (polysorbate 20), 0.005 w/v % NaN3). Each antibody was captured onto the sensor surface by ProL. Antibody capture levels were aimed at 200 resonance units (RU). Then, recombinant human C1r2s2 was injected at concentrations of 25 and 100 nM followed by dissociation at pH7.4. The surface was regenerated using 10 mM Glycine-HCl, pH1.5.

B1: AL0451 (antibody, human IgG1, kappa, V domains shown)
VH: QVQLVESGGGVVQPGRSLRLSCAASGFTFSAYAMNWIRQPPGKGLEWIGLIYGSGSTFYASWAKGRVTISVDTSKNQFSLKLSSVTAADTAVYYCARGRSVNYNSDFHLWGQGTLVTVSS
VL: DIQMTQSPSSLSASVGDRVTITCQASQSLHDKKNLAWYQQKPGQPPKLLIYGASTLESGVPSRFSGSGSGTDFTLTISSLQPEDFATYYCQGEFSASSADCNTFGQGTKVEIKR
notes: COS0637temp with VL C94A (Kabat), already in the VL entry
For B1, the binding result is given as “no binding (tested: 100 nM)”.

B2: AL0469 (antibody, human IgG1, kappa, V domains shown)
VH: B1 VH
VL: B1 VL with A96Y
notes: COS0637temp with VL C94Y (Kabat), already in the VL entry
For B2, the binding result is listed as “no binding (tested: 100 nM)”.

B3: AL0545 (antibody, human IgG1, kappa, V domains shown)
VH: B1 VH
VL: B1 VL with A96C, C101F
notes: COS0637temp with VL C95dF (Kabat), already in the VL entry
With B3, the binding result is on record as “no binding (tested: 100 nM)”.

B4: AL0546 (antibody, human IgG1, kappa, V domains shown)
VH: B1 VH
VL: B1 VL with A96C, C101G
notes: COS0637temp with VL C95dG (Kabat), already in the VL entry
On to B4, for which the binding result is reported as “no binding (tested: 100 nM)”.

B5: AL0455 (antibody, human IgG1, kappa, V domains shown)
VH: B1 VH
VL: B1 VL with A96G
notes: COS0637temp with VL C94G (Kabat), already in the VL entry
As to B5, the binding result is reported as “no binding (tested: 100 nM)”.

B6: AL0543 (antibody, human IgG1, kappa, V domains shown)
VH: B1 VH
VL: B1 VL with A96C, C101D
notes: COS0637temp with VL C95dD (Kabat), already in the VL entry
Turning to B6, the binding result is given as “no binding (tested: 100 nM)”.

B7: AL0466 (antibody, human IgG1, kappa, V domains shown)
VH: B1 VH
VL: B1 VL with A96T
notes: COS0637temp with VL C94T (Kabat), already in the VL entry
Regarding B7, the binding result is listed as “no binding (tested: 100 nM)”.

B8: AL0463 (antibody, human IgG1, kappa, V domains shown)
VH: B1 VH
VL: B1 VL with A96Q
notes: COS0637temp with VL C94Q (Kabat), already in the VL entry
Consider B8, for which the binding result was “no binding (tested: 100 nM)”.

B9: AL0549 (antibody, human IgG1, kappa, V domains shown)
VH: B1 VH
VL: B1 VL with A96C, C101K
notes: COS0637temp with VL C95dK (Kabat), already in the VL entry
On to B9, for which the binding result is recorded as “no binding (tested: 100 nM)”.

B10: AL0454 (antibody, human IgG1, kappa, V domains shown)
VH: B1 VH
VL: B1 VL with A96F
notes: COS0637temp with VL C94F (Kabat), already in the VL entry
On to B10, for which the binding result is listed as “no binding (tested: 100 nM)”.

B11: AL0457 (antibody, human IgG1, kappa, V domains shown)
VH: B1 VH
VL: B1 VL with A96I
notes: COS0637temp with VL C94I (Kabat), already in the VL entry
Consider B11, for which the binding result is on record as “no binding (tested: 100 nM)”.

B12: AL0456 (antibody, human IgG1, kappa, V domains shown)
VH: B1 VH
VL: B1 VL with A96H
notes: COS0637temp with VL C94H (Kabat), already in the VL entry
Regarding B12, the binding result is listed as “no binding (tested: 100 nM)”.

B13: AL0548 (antibody, human IgG1, kappa, V domains shown)
VH: B1 VH
VL: B1 VL with A96C, C101I
notes: COS0637temp with VL C95dI (Kabat), already in the VL entry
For B13, the binding result is on record as “no binding (tested: 100 nM)”.

B14: AL0452 (antibody, human IgG1, kappa, V domains shown)
VH: B1 VH
VL: B1 VL with A96D
notes: COS0637temp with VL C94D (Kabat), already in the VL entry
For B14, the binding result was “no binding (tested: 100 nM)”.

B15: AL0542 (antibody, human IgG1, kappa, V domains shown)
VH: B1 VH
VL: B1 VL with A96C, C101A
notes: COS0637temp with VL C95dA (Kabat), already in the VL entry
B15: the binding result was “no binding (tested: 100 nM)”.

B16: AL0468 (antibody, human IgG1, kappa, V domains shown)
VH: B1 VH
VL: B1 VL with A96W
notes: COS0637temp with VL C94W (Kabat), already in the VL entry
Regarding B16, the binding result is recorded as “no binding (tested: 100 nM)”.

B17: AL0460 (antibody, human IgG1, kappa, V domains shown)
VH: B1 VH
VL: B1 VL with A96M
notes: COS0637temp with VL C94M (Kabat), already in the VL entry
With B17, the binding result was “no binding (tested: 100 nM)”.

B18: AL0458 (antibody, human IgG1, kappa, V domains shown)
VH: B1 VH
VL: B1 VL with A96K
notes: COS0637temp with VL C94K (Kabat), already in the VL entry
On to B18, for which the binding result is “no binding (tested: 100 nM)”.

B19: AL0453 (antibody, human IgG1, kappa, V domains shown)
VH: B1 VH
VL: B1 VL with A96E
notes: COS0637temp with VL C94E (Kabat), already in the VL entry
On to B19, for which the binding result is listed as “no binding (tested: 100 nM)”.

B20: AL0544 (antibody, human IgG1, kappa, V domains shown)
VH: B1 VH
VL: B1 VL with A96C, C101E
notes: COS0637temp with VL C95dE (Kabat), already in the VL entry
For B20, the binding result is reported as “no binding (tested: 100 nM)”.

B21: AL0464 (antibody, human IgG1, kappa, V domains shown)
VH: B1 VH
VL: B1 VL with A96R
notes: COS0637temp with VL C94R (Kabat), already in the VL entry
Turning to B21, the binding result is given as “no binding (tested: 100 nM)”.

B22: AL0465 (antibody, human IgG1, kappa, V domains shown)
VH: B1 VH
VL: B1 VL with A96S
notes: COS0637temp with VL C94S (Kabat), already in the VL entry
B22: the binding result is given as “no binding (tested: 100 nM)”.

B23: AL0550 (antibody, human IgG1, kappa, V domains shown)
VH: B1 VH
VL: B1 VL with A96C, C101L
notes: COS0637temp with VL C95dL (Kabat), already in the VL entry
Consider B23, for which the binding result is on record as “no binding (tested: 100 nM)”.

B24: AL0467 (antibody, human IgG1, kappa, V domains shown)
VH: B1 VH
VL: B1 VL with A96V
notes: COS0637temp with VL C94V (Kabat), already in the VL entry
As for B24, the binding result is given as “no binding (tested: 100 nM)”.

B25: AL0459 (antibody, human IgG1, kappa, V domains shown)
VH: B1 VH
VL: B1 VL with A96L
notes: COS0637temp with VL C94L (Kabat), already in the VL entry
Consider B25, for which the binding result is listed as “no binding (tested: 100 nM)”.

B26: AL0462 (antibody, human IgG1, kappa, V domains shown)
VH: B1 VH
VL: B1 VL with A96P
notes: COS0637temp with VL C94P (Kabat), already in the VL entry
Regarding B26, the binding result is reported as “no binding (tested: 100 nM)”.

B27: AL0461 (antibody, human IgG1, kappa, V domains shown)
VH: B1 VH
VL: B1 VL with A96N
notes: COS0637temp with VL C94N (Kabat), already in the VL entry
In the case of B27, the binding result is “no binding (tested: 100 nM)”.

B28: AL0547 (antibody, human IgG1, kappa, V domains shown)
VH: B1 VH
VL: B1 VL with A96C, C101H
notes: COS0637temp with VL C95dH (Kabat), already in the VL entry
Turning to B28, the binding result was “no binding (tested: 100 nM)”.
